Data set [1] can be described thus: Bioactivity test (USP limit, USP 121 Insulin Assays). To be noted: for Bioactivity: USP limit min. 15 IU/mg. The method, then:
According to one embodiment of the present invention, the composition is prepared by based on USP 121 formula (The United States Pharmacopeial Convention 2015, [121] Insulin Assays). This is important in order to minimize the risk of adverse effects, both local and systemic. It is important that human insulin in the composition is used without extra excipients because, its amino acid sequence and biological activity are the same as those of the human body and are safe and have no toxic or side effects.

Data set [2] can be described thus: Particle size measurement of human insulin before and after micronization. Format: physicochemical. The method, then: According to one embodiment of the present invention, after micronization, the micronized human insulin has a d(0.1) particle size which is less than 5 μm or less than 3 μm or less than 2 μm.
According to one embodiment of the present invention, the micronized human insulin particles were prepared by using supercritical fluid process.

For the substance “human insulin: recombinant human insulin, unmodified primary structure, before micronization”, the Bioactivity in data set [1] (Before Micronization) worked out at 16.02 IU/mg. In data set [2] (Before Micronization), the “d(0.1) particle size” value was 1.96 μm, the “d(0.5) particle size” value came to 13.24 μm and the “d(0.9) particle size” value was found to be 25.12 μm.
Consider “micronized human insulin: recombinant, unmodified human insulin with particle size reduced by supercritical fluid (SAS) process”, for which the Bioactivity in data set [1] (After Micronization) is on record as 34.72 IU/mg. Further, the “Protein activity at the end of the micronization process (versus before)” value in data set [1] (without any change in protein structure) is listed as “protein activity increased”. In addition, in data set [2] (After Micronization), the “d(0.1) particle size” value stood at 1.654 μm, the “d(0.5) particle size” value is given as 5.273 μm and the “d(0.9) particle size” value is on record as 12.54 μm.

The record behind these values is patent US20210290733A1, “INJECTABLE MICRONIZED HUMAN INSULIN” (ARVEN ILAC SANAYI VE TICARET ANONIM SIRKETI, priority 2018, published 2021).
